# Data: patent US20100150834A1 (BURNHAM INSTITUTE, published 2010)
# T1: murine EphB4 ectodomain (murine, UniProt P54761 16-539)
# T1 construct: extracellular domain; Coated on wells; also called immobilized EphB4 receptor ectodomain
# T1 sequence (looked up): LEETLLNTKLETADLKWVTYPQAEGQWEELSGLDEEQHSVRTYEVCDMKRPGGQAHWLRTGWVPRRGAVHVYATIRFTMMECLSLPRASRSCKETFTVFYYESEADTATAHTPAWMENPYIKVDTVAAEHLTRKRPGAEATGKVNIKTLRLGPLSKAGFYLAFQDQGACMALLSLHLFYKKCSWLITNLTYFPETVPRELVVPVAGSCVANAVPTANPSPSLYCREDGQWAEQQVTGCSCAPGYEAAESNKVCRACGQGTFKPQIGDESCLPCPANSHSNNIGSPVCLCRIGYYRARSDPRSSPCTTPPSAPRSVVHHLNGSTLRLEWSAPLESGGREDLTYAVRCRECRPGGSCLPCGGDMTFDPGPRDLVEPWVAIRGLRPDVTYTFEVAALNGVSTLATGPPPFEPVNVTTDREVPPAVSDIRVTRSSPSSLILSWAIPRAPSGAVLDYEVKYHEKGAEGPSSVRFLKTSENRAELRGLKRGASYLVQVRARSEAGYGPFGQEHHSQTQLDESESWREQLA
# T2: EphB4 (receptor of Table 1) (Mus musculus (Mouse), UniProt P54761 16-539)
# T2 sequence: T1 sequence (looked up)
# B1: WHWTIEPFAITS peptide (SEQ ID NO:8) (peptide)
# peptide: WHWTIEPFAITS
# notes: Panned on EphB2
# B2: DHWRILPFSLSS peptide (SEQ ID NO:10) (peptide)
# peptide: DHWRILPFSLSS
# notes: Panned on EphB2
# B3: YL-RAW peptide YLFSPNGPIARAW (SEQ ID NO:41) (peptide)
# peptide: YLFSPNGPIARAW
# B4: L-RAW peptide LFSPNGPIARAW (SEQ ID NO:42) (peptide)
# peptide: LFSPNGPIARAW
# B5: NYL-RAW peptide NYLFSPNGPIARAW (SEQ ID NO:40) (peptide)
# peptide: NYLFSPNGPIARAW
# B6: NPVIGPIQRAWT peptide (SEQ ID NO:27) (peptide)
# peptide: NPVIGPIQRAWT
# notes: Panned on EphB4
# B7: FSPQGPAARNFA peptide (SEQ ID NO:25) (peptide)
# peptide: FSPQGPAARNFA
# notes: Panned on EphB4
# B8: DALNDWLLFRPW peptide (SEQ ID NO:20) (peptide)
# peptide: DALNDWLLFRPW
# notes: Panned on EphB4
# B9: DHNHNLYNPWRL peptide (SEQ ID NO:21) (peptide)
# peptide: DHNHNLYNPWRL
# notes: Panned on EphB4
# B10: EWYMKFPPEHYF peptide (SEQ ID NO:19) (peptide)
# peptide: EWYMKFPPEHYF
# notes: Panned on EphB4
# B11: SHKFPGPPSWMS peptide (SEQ ID NO:4) (peptide)
# peptide: SHKFPGPPSWMS
# notes: Panned on EphB1
# B12: DHWYYTPWQPIE peptide (SEQ ID NO:9) (peptide)
# peptide: DHWYYTPWQPIE
# notes: Panned on EphB2
# B13: IHWPVAPYSYLD peptide (SEQ ID NO:11) (peptide)
# peptide: IHWPVAPYSYLD
# notes: Panned on EphB2
# B14: SHVGPIMRAWAP peptide (SEQ ID NO:28) (peptide)
# peptide: SHVGPIMRAWAP
# notes: Panned on EphB4
# B15: TTLSQLPKSTWL peptide (SEQ ID NO:2) (peptide)
# peptide: TTLSQLPKSTWL
# notes: Panned on EphB1
# B16: GPVHRAWEPTSH peptide (SEQ ID NO:29) (peptide)
# peptide: GPVHRAWEPTSH
# notes: Panned on EphB4
# B17: SHWPVLPFAHWQ peptide (SEQ ID NO:12) (peptide)
# peptide: SHWPVLPFAHWQ
# notes: Panned on EphB2
# B18: EFFTWRPTYYGI peptide (SEQ ID NO:23) (peptide)
# peptide: EFFTWRPTYYGI
# notes: Panned on EphB4
# B19: GPVERAWRPDLI peptide (SEQ ID NO:30) (peptide)
# peptide: GPVERAWRPDLI
# notes: Panned on EphB4
# B20: THWCHLLNCAAL peptide (SEQ ID NO:6) (peptide)
# peptide: THWCHLLNCAAL
# notes: Panned on EphB2
# B21: DHWRVSPYSLLY peptide (SEQ ID NO:13) (peptide)
# peptide: DHWRVSPYSLLY
# notes: Panned on EphB2
# B22: GPVADAWLVYPR peptide (SEQ ID NO:32) (peptide)
# peptide: GPVADAWLVYPR
# notes: Panned on EphB4
# B23: GPVSKAWQETET peptide (SEQ ID NO:31) (peptide)
# peptide: GPVSKAWQETET
# notes: Panned on EphB4
# B24: WHRYPDPRMLPT peptide (SEQ ID NO:7) (peptide)
# peptide: WHRYPDPRMLPT
# notes: Panned on EphB2
# B25: … peptide (SEQ ID NO:16) (peptide)
# peptide: DHWPLLPYALAH
# notes: Panned on EphB2
# B26: LPHGPVAAAWDA peptide (SEQ ID NO:26) (peptide)
# peptide: LPHGPVAAAWDA
# notes: Panned on EphB4
# B27: NHWPTQPYAIPI peptide (SEQ ID NO:15) (peptide)
# peptide: NHWPTQPYAIPI
# notes: Panned on EphB2
# B28: WPPHWPRSLDYA peptide (SEQ ID NO:17) (peptide)
# peptide: WPPHWPRSLDYA
# notes: Panned on EphB2
# B29: WGIPRAAQVMWT peptide (SEQ ID NO:33) (peptide)
# peptide: WGIPRAAQVMWT
# notes: Panned on EphB4
# B30: THWKFQPWALVT peptide (SEQ ID NO:5) (peptide)
# peptide: THWKFQPWALVT
# notes: Panned on EphB1
# B31: SGHQLLLNKMPN peptide (SEQ ID NO:35) (peptide)
# peptide: SGHQLLLNKMPN
# notes: Panned on EphB4
# B32: … peptide (SEQ ID NO:34) (peptide)
# peptide: IPWTQHMAMSPM
# notes: Panned on EphB4
# Target: EphB2 (receptor of Table 1)
# Assay: inhibition of ephrin-B2 AP binding to EphB2 (panning receptor)
row,Binder,IC50 [µM]
1,B1,> 100
2,B2,> 100

# Target: T1, murine EphB4 ectodomain
# Assay: inhibition of murine ephrin-B2 AP binding to immobilised murine EphB4 ectodomain
row,Binder,IC50 [µM]
1,B3,~0.04
2,B4,> 10
3,B5,~0.04

# Target: T2, EphB4 (receptor of Table 1)
# Assay: inhibition of ephrin-B2 AP binding to EphB4 (panning receptor)
row,Binder,IC50 [µM]
1,B6,> 500
2,B7,> 600
3,B8,> 100
4,B9,~200
5,B10,> 600

# Target: EphB3 (receptor of Table 1)
# Assay: EphB receptor specificity panel (% binding)
row,Binder,% Binding [%]
1,B11,10
2,B12,5
3,B13,4
4,B14,2
5,B6,4
6,B15,1
7,B16,16
8,B17,9
9,B18,29
10,B19,1
11,B7,11
12,B1,22
13,B8,10
14,B20,85
15,B9,9
16,B2,4
17,B21,1
18,B22,4
19,B23,14
20,B24,31
21,B25,7
22,B10,23
23,B26,2
24,B27,22
25,B28,0
26,B29,20
27,B30,5

# Target: EphB2 (receptor of Table 1)
# Assay: EphB receptor specificity panel (% binding)
row,Binder,% Binding [%]
1,B11,100
2,B12,81
3,B13,100
4,B14,6
5,B6,0
6,B15,0
7,B16,6
8,B17,100
9,B18,12
10,B19,2
11,B7,8
12,B1,100
13,B8,0
14,B20,89
15,B9,8
16,B2,100
17,B21,97
18,B22,5
19,B23,13
20,B24,100
21,B25,100
22,B10,23
23,B26,15
24,B27,100
25,B28,100
26,B29,17
27,B30,100

# Target: EphB6 (receptor of Table 1)
# Assay: EphB receptor specificity panel (% binding)
row,Binder,% Binding [%]
1,B11,0
2,B12,2
3,B13,7
4,B14,6
5,B6,0
6,B15,0
7,B16,7
8,B17,10
9,B18,17
10,B19,3
11,B7,11
12,B1,45
13,B8,16
14,B20,26
15,B9,7
16,B2,3
17,B21,1
18,B22,6
19,B23,16
20,B24,15
21,B25,0
22,B10,30
23,B26,4
24,B27,0
25,B28,0
26,B29,14
27,B30,0

# Target: T2, EphB4 (receptor of Table 1)
# Assay: EphB receptor specificity panel (% binding)
row,Binder,% Binding [%]
1,B11,9
2,B12,5
3,B13,4
4,B14,100
5,B6,100
6,B15,0
7,B16,100
8,B17,6
9,B31,100
10,B18,100
11,B19,100
12,B7,100
13,B1,20
14,B8,100
15,B32,100
16,B20,20
17,B9,100
18,B2,1
19,B21,0
20,B22,100
21,B23,100
22,B24,13
23,B25,0
24,B10,100
25,B26,100
26,B27,22
27,B28,0
28,B29,100
29,B30,0

# Target: EphB1 (receptor of Table 1)
# Assay: EphB receptor specificity panel (% binding)
row,Binder,% Binding [%]
1,B11,88
2,B12,100
3,B13,97
4,B14,22
5,B6,1
6,B15,100
7,B16,4
8,B17,98
9,B18,16
10,B19,1
11,B7,13
12,B1,99
13,B8,0
14,B20,100
15,B9,9
16,B2,53
17,B21,100
18,B22,10
19,B23,13
20,B24,54
21,B25,4
22,B10,22
23,B26,2
24,B27,18
25,B28,0
26,B29,16
27,B30,86
